Data reported in patent US20240360227A1.

Columns and labels:
[1] = target: Recombinant human his-tagged IGF R extracellular domain protein (human) (UniProt P08069); experiment: SPR, Ab captured via anti-huIgG Fc, pH 7.4
[2] = target: Recombinant human his-tagged IGF R extracellular domain protein (human) (UniProt P08069); experiment: SPR, Ab captured via anti-huIgG Fc, dissociation at pH 6

Binder	Kd [1] [nM]	koff [1] [s⁻¹]	kon [1] [M⁻¹ s⁻¹]	Kd [2] [nM]	koff [2] [s⁻¹]	kon [2] [M⁻¹ s⁻¹]
VRDN-02056 (antibody, V domains shown) VH: QVQLQESGPGLVKPSETLSLTCTVSGYSITGGYLWNWIRQPPGKGLEWIGYISYDGTNNYKPSLKDRVTISRDTSKNQFSLKLSSVTAADTAVYYCARYGRVFFDYWGQGTLVTVSS VL: DIVMTQSPLSLPVTPGEPASISCRSSQSIVHSNGNTYLQWYLQKPGQSPQLLIYKVSNRLYGVPDRFSGSGSGTDFTLKISRVEAEDVGVYYCFQGSHVHWTFGQGTKVEIK	0.237	1.98e-05	83500	1.13	9.75e-05	86000
VRDN-02057 (antibody, V domains shown) VH: QVQLQESGPGLVKPSETLSLTCTVSGYSITGGYLWNWIRQPPGKGLEWIGYISYDGTNNYKPSLKDRVTISRDTSKNQFSLKLSSVTAADTAVYYCARYGRVFFDYWGQGTLVTVSS VL: DIVMTQSPLSLPVTPGEPASISCRSSQSIVHSNGNTYLQWYLQKPGQSPQLLIYKVSNRLYGVPDRFSGSGSGTDFTLKISRVEAEDVGVYYCFQGSHVPHTFGQGTKVEIK	0.72	6.9e-05	95800	1.4	0.000165	118000
VRDN-02006 (antibody, V domains shown) VH: QVQLQESGPGLVKPSETLSLTCTVSGYSITHGYLWNWIRQPPGKGLEWIGYISYDGTNNYKPSLKDRVTISRDTSKNQFSLKLSSVTAADTAVYYCARYGRVFFDYWGQGTLVTVSS VL: DIVMTQSPLSLPVTPGEPASISCRSSQSIVHSNGNTYLQWYLQKPGQSPQLLIYKVSNRLYGVPDRFSGSGSGTDFTLKISRVEAEDVGVYYCFQGSHVPWTFGQGTKVEIK	1.08	8.49e-05	78500	1.1	0.000101	92300
VRDN-02062 (antibody, V domains shown) VH: QVQLQESGPGLVKPSETLSLTCTVSGYSITGGYLWNWIRQPPGKGLEWIGYIHYDGTNNYKPSLKDRVTISRDTSKNQFSLKLSSVTAADTAVYYCARYGRVFFDYWGQGTLVTVSS VL: DIVMTQSPLSLPVTPGEPASISCRSSQSIVHSNGNTYLQWYLQKPGQSPQLLIYKVSNRLYGVPDRFSGSGSGTDFTLKISRVEAEDVGVYYCFHGSHVPWTFGQGTKVEIK	0.225	2.13e-05	94300	0.166	2.82e-05	170000
VRDN-02060 (antibody, V domains shown) VH: QVQLQESGPGLVKPSETLSLTCTVSGYSITGGYLWNWIRQPPGKGLEWIGYISYHGTNNYKPSLKDRVTISRDTSKNQFSLKLSSVTAADTAVYYCARYGRVFFDYWGQGTLVTVSS VL: DIVMTQSPLSLPVTPGEPASISCRSHQSIVHSNGNTYLQWYLQKPGQSPQLLIYKVSNRLYGVPDRFSGSGSGTDFTLKISRVEAEDVGVYYCFQGSHVPWTFGQGTKVEIK	0.249	2.77e-05	111000	0.394	6.07e-05	154000
VRDN-02058 (antibody, V domains shown) VH: QVQLQESGPGLVKPSETLSLTCTVSGYSITGGYLWNWIRQPPGKGLEWIGYISYDGTNNYKPSLKDRVTISRDTSKNQFSLKLSSVTAADTAVYYCARYGRVFFDYWGQGTLVTVSS VL: DIVMTQSPLSLPVTPGEPASISCRSSQSIVHSNGNTYLQWYLQKPGQSPQLLIYKVSNRLYGVPDRFSGSGSGTDFTLKISRVEAEDVGVYYCFQGSHVPWHFGQGTKVEIK	0.836	8.5e-05	102000	1.18	9.52e-05	80800
VRDN-02061 (antibody, V domains shown) VH: QVQLQESGPGLVKPSETLSLTCTVSGYSITGGYLWNWIRQPPGKGLEWIGYISYDGTNNYKPSLKDRVTISRDTSKNQFSLKLSSVTAADTAVYYCARHGRVFFDYWGQGTLVTVSS VL: DIVMTQSPLSLPVTPGEPASISCRSHQSIVHSNGNTYLQWYLQKPGQSPQLLIYKVSNRLYGVPDRFSGSGSGTDFTLKISRVEAEDVGVYYCFQGSHVPWTFGQGTKVEIK	0.28	2.65e-05	94700	0.299	4.34e-05	145000

Second part, the binder after the results:

Kd [1] [nM]	koff [1] [s⁻¹]	kon [1] [M⁻¹ s⁻¹]	Kd [2] [nM]	koff [2] [s⁻¹]	kon [2] [M⁻¹ s⁻¹]	Binder
0.235	2.48e-05	106000	0.145	2.27e-05	157000	VRDN-02064 (antibody, V domains shown) VH: QVQLQESGPGLVKPSETLSLTCTVSGYSITGGYLWNWIRQPPGKGLEWIGYISYDGTNNYKPSLKDRVTISRDTSKNQFSLKLSSVTAADTAVYYCARHGRVFFDYWGQGTLVTVSS VL: DIVMTQSPLSLPVTPGEPASISCRSSQSIVHSNGNTYLQWYLQKPGQSPQLLIYKVSNRLYGVPDRFSGSGSGTDFTLKISRVEAEDVGVYYCFHGSHVPWTFGQGTKVEIK
0.281	3.57e-05	127000	0.269	5.3e-05	197000	VRDN-02072 (antibody, V domains shown) VH: QVQLQESGPGLVKPSETLSLTCTVSGYSITGGYLWNWIRQPPGKGLEWIGYIHYDGTNNYKPSLKDRVTISRDTSKNQFSLKLSSVTAADTAVYYCARHGRVFFDYWGQGTLVTVSS VL: DIVMTQSPLSLPVTPGEPASISCRSHQSIVHSNGNTYLQWYLQKPGQSPQLLIYKVSNRLYGVPDRFSGSGSGTDFTLKISRVEAEDVGVYYCFQGSHVHWTFGQGTKVEIK
0.22	2.54e-05	116000	0.232	4.83e-05	208000	VRDN-02065 (antibody, V domains shown) VH: QVQLQESGPGLVKPSETLSLTCTVSGYSITGGYLWNWIRQPPGKGLEWIGYIHYDGTNNYKPSLKDRVTISRDTSKNQFSLKLSSVTAADTAVYYCARYGRVFFDYWGQGTLVTVSS VL: DIVMTQSPLSLPVTPGEPASISCRSSQSIVHSNGNTYLQWYLQKPGQSPQLLIYKVSNRLYGVPDRFSGSGSGTDFTLKISRVEAEDVGVYYCFQGSHVHWTFGQGTKVEIK
0.25	2.75e-05	110000	0.31	5.44e-05	175000	VRDN-02067 (antibody, V domains shown) VH: QVQLQESGPGLVKPSETLSLTCTVSGYSITGGYLWNWIRQPPGKGLEWIGYISYDGTNNYKPSLKDRVTISRDTSKNQFSLKLSSVTAADTAVYYCARHGRVFFDYWGQGTLVTVSS VL: DIVMTQSPLSLPVTPGEPASISCRSSQSIVHSNGNTYLQWYLQKPGQSPQLLIYKVSNRLYGVPDRFSGSGSGTDFTLKISRVEAEDVGVYYCFQGSHVHWTFGQGTKVEIK
0.103	1.09e-05	105000	0.352	6.64e-05	189000	VRDN-02071 (antibody, V domains shown) VH: QVQLQESGPGLVKPSETLSLTCTVSGYSITGGYLWNWIRQPPGKGLEWIGYIHYDGTNNYKPSLKDRVTISRDTSKNQFSLKLSSVTAADTAVYYCARHGRVFFDYWGQGTLVTVSS VL: DIVMTQSPLSLPVTPGEPASISCRSHQSIVHSNGNTYLQWYLQKPGQSPQLLIYKVSNRLYGVPDRFSGSGSGTDFTLKISRVEAEDVGVYYCFHGSHVPWTFGQGTKVEIK
0.137	1.52e-05	111000	0.325	5.59e-05	172000	VRDN-02069 (antibody, V domains shown) VH: QVQLQESGPGLVKPSETLSLTCTVSGYSITGGYLWNWIRQPPGKGLEWIGYISYHGTNNYKPSLKDRVTISRDTSKNQFSLKLSSVTAADTAVYYCARYGRVFFDYWGQGTLVTVSS VL: DIVMTQSPLSLPVTPGEPASISCRSSQSIVHSNGNTYLQWYLQKPGQSPQLLIYKVSNRLYGVPDRFSGSGSGTDFTLKISRVEAEDVGVYYCFQGSHVPHTFGQGTKVEIK
0.19	2.11e-05	111000	0.284	3.97e-05	140000	VRDN-02063 (antibody, V domains shown) VH: QVQLQESGPGLVKPSETLSLTCTVSGYSITGGYLWNWIRQPPGKGLEWIGYISYHGTNNYKPSLKDRVTISRDTSKNQFSLKLSSVTAADTAVYYCARYGRVFFDYWGQGTLVTVSS VL: DIVMTQSPLSLPVTPGEPASISCRSSQSIVHSNGNTYLQWYLQKPGQSPQLLIYKVSNRLYGVPDRFSGSGSGTDFTLKISRVEAEDVGVYYCFHGSHVPWTFGQGTKVEIK
0.249	2.87e-05	115000	0.376	6.53e-05	174000	VRDN-02068 (antibody, V domains shown) VH: QVQLQESGPGLVKPSETLSLTCTVSGYSITGGYLWNWIRQPPGKGLEWIGYIHYDGTNNYKPSLKDRVTISRDTSKNQFSLKLSSVTAADTAVYYCARYGRVFFDYWGQGTLVTVSS VL: DIVMTQSPLSLPVTPGEPASISCRSSQSIVHSNGNTYLQWYLQKPGQSPQLLIYKVSNRLYGVPDRFSGSGSGTDFTLKISRVEAEDVGVYYCFQGSHVPHTFGQGTKVEIK
0.322	3.38e-05	105000	0.335	5.29e-05	158000	VRDN-02070 (antibody, V domains shown) VH: QVQLQESGPGLVKPSETLSLTCTVSGYSITGGYLWNWIRQPPGKGLEWIGYISYDGTNNYKPSLKDRVTISRDTSKNQFSLKLSSVTAADTAVYYCARHGRVFFDYWGQGTLVTVSS VL: DIVMTQSPLSLPVTPGEPASISCRSSQSIVHSNGNTYLQWYLQKPGQSPQLLIYKVSNRLYGVPDRFSGSGSGTDFTLKISRVEAEDVGVYYCFQGSHVPHTFGQGTKVEIK
0.278	3.12e-05	112000	0.296	5.14e-05	174000	VRDN-02066 (antibody, V domains shown) VH: QVQLQESGPGLVKPSETLSLTCTVSGYSITGGYLWNWIRQPPGKGLEWIGYISYHGTNNYKPSLKDRVTISRDTSKNQFSLKLSSVTAADTAVYYCARYGRVFFDYWGQGTLVTVSS VL: DIVMTQSPLSLPVTPGEPASISCRSSQSIVHSNGNTYLQWYLQKPGQSPQLLIYKVSNRLYGVPDRFSGSGSGTDFTLKISRVEAEDVGVYYCFQGSHVHWTFGQGTKVEIK
